Assay [1] addresses fluorescently labelled double-cysteine variant of outer membrane protein X (OmpX_(1,149)), unfolded (UniProt P0A917). Description: single-molecule FRET.
The target is the same in assay [2]. Description: single-molecule FRET. This is another data set of the same source.

Where two headings read alike, the source gives them in different places.

Chain of UniProt P0A917 (P0A917 24-171, change not shown): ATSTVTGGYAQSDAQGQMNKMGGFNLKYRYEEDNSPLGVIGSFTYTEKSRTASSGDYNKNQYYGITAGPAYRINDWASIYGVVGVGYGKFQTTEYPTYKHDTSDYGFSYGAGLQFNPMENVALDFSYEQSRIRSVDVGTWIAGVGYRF

Turning to “survival factor A (SurA) (from UniProt P0ABZ6 21-428) (natural protein)”, in assay [1], the c1/2 turned out to be 407 nM, the dH is -132 kJ/mol and the percent of uOmpX bound at ~6 uM SurA stood at 87%.

B1: seventeen-kilodalton protein (Skp), trimer (natural protein)
chain: ADKIAIVNMGSLFQQVAQKTGVSNTLENEFKGRASELQRMETDLQAKMKKLQSMKAGSDRTKLEKDVMAQRQTFAQKAQAFEQDRARRSNEERGKLVTRIQTAVKSVANSQDIDLVVDANAVAYNSSDVKDITADVLKQVK
In assay [2], B1 returned a c1/2 of 359 nM, a dH of -298 kJ/mol and a percent of uOmpX bound at 2.5 uM Skp3 of 80%.
